# In patent US20190127478A1 (published 2019):
# Legend:
# Test in all cases: Octet RED 96
# FcgRIa = biological target: FcgRIa
# FcRn = biological target: FcRn
# FcgRIIIaV = biological target: FcgRIIIaV
binder,measurement,setting,value
BCD-100 IgG1* (antibody) heavy: not shown light: QPVLTQPLSVSVALGQTARITCGGNNIGSKNVHWYQQKPGQAPVLVIYRDSNRPSGIPERFSGSNSGNTATLTISRAQAGDEADYYCQVWDSSTAVFGTGTKLTVLQRTVAAPSVFIFPPSDEQLKSGTASVVCLLNNFYPREAKVQWKVDNALQSGNSQESVTEQDSKDSTYSLSSTLTLSKADYEKHKVYACEVTHQGLSSPVTKSFNRGEC,Kd,FcgRIa,750 nM
same,Kd,FcRn,9.6 nM
same,Kd,FcgRIIIaV,740 nM
